Results as given in publication PMC6222848, “Spatial Overlap of Claudin- and Phosphatidylinositol Phosphate-Binding Sites on the First PDZ Domain of Zonula Occludens 1 Studied by NMR” (Molecules : A Journal of Synthetic Chemistry and Natural …, 2018).

B1: GST-tagged mouse ZO-1(PDZ1) (residues 18–110) [mouse] / His6-tagged thioredoxin (Trx) fusion protein of mouse CLD-3 C-terminus (Trx-CLD3, residues 210–219) [mouse] (parent)
chain 1: IWEQHTVTLHRAPGFGFGIAISGGRDNPHFQSGETSIVISDVLKGGPAEGQLQENDRVAMVNGVSMDNVEHAFAVQQLRKSGKNAKITIRRKK
chain 2: GTAYDRKDYV

Variants of: B1
Assay: SPR
Conditions: with His6-tagged thioredoxin (Trx) fusion protein of mouse CLD-3 C-terminus (Trx-CLD3, residues 210–219) [mouse], read off a plot
[1] = absence of phytic acid (gray bar), parent: 1.2e+03
[2] = presence of 10 mM phytic acid (InsP6) (black bar), parent: 530

Variant	response [1]	response [2]
chain 1 IWEQHTVTLHRAPGFGFGIAISGGRDNPHFQSGETSIVISDVLKGGPAEGQLQENDRVAMVNGVSMDNVEHAFAVQQLRASGKNAKITIRRKK	1400 RU	460 RU
chain 1 IWEQHTVTLHAAPGFGFGIAISGGRDNPHFQSGETSIVISDVLKGGPAEGQLQENDRVAMVNGVSMDNVEHAFAVQQLRKSGKNAKITIRRKK	340 RU	78 RU
chain 1 IWEQHTVTLHRAPGFGFGIAISGGRDNPHFQSGETSIVISDVLKGGPAEGQLQENDRVAMVNGVSMDNVEHAFAVQQLRKSGANAKITIRRKK	1300 RU	480 RU
